Results taken from patent US20220033784A1 (priority 2020, published 2022).

Columns and labels:
[1] = system: HH cells (IL-2 CD122/CD132 (β/γ) receptor complex); assay: pSTAT5 ELISA in HH cells; format: cell-based; details: for Selectivity HH/iTreg: higher value = greater selectivity for HH cells; for EC50: pSTAT5 level 50% of maximum, InstantOne ELISA, read-out: EC50 HH T cell; for relative selectivity for HH cells vs iTreg cells among the tested molecules: Table C
Method: (§1) The ability of the IL-2 variants to activate HH cells and iTregs was measured by monitoring relative changes in phosphorylated STAT5 (pSTAT5) in response to treatment of the cells with the IL-2 variants. pSTAT5 is known to be a downstream consequence of IL-2 signaling. HH T cells (ATCC CRL-2105) are a line of T cells that lack the alpha chain of the IL-2 receptor complex, but that contain the beta and gamma chains of the IL-2 receptor complex. iTreg cells were prepared from Fresh Leuko Paks obtained from […] Technologies (CAT #70500.1, Donor #D001003551).
(§2) For IL-2 activation, the HH cells and iTreg cells were plated at 2*10e6 cells/well in 50 ul serum-free RPMI 1640 media (Gibco), and allowed to rest at 37° C. After resting, cells were treated the IL-2 molecules listed above, and cells were then pelleted by centrifugation.
(§3) Following treatment with the IL-2 molecules, cell induction status was evaluated by the InstantOne ELISA pSTAT5 detection kit (Invitrogen).

[2] = system: iTreg cells (IL-2 CD25/CD122/CD132 (α/β/γ) receptor complex); assay: pSTAT5 ELISA in iTreg cells; format: cell-based; details: pSTAT5 level 50% of maximum, InstantOne ELISA; read-out: EC50 iTreg cell
Method: as §1, §2, §3

CD8 T cells [3] = assay: pSTAT5 flow cytometry in hPBMCs: CD8 T cells; format: cell-based, human
Method: (§4) In this experiment, the ability of the IL-2 variants to activate CD8 T cells, NK cells, and Treg cells was measured by monitoring relative changes in pSTAT5 in response to treatment of the cells with the IL-2 variants. The IL-2 variants tested in this experiment were each fused to a human IgG Fc domain as described in Example 15. […]; Blood from healthy volunteers was taken and hPBMCs were isolated using a ficoll-paque (GE Healthcare) gradient, washed with PBS to remove platelets, and cleared of red blood cells using ACK lysis buffer (Gibco). Cells were then plated at 1*10e6 cells/well in 90 uL serum-free RPMI 1640 media (Gibco) and allowed to rest for 2-4 hours at 37° C. After resting, cells were treated the IL-2 molecules listed above (10 uL), at the indicated concentrations for 20 minutes at 37° C., and 25 uL 20% PFA was immediately added with gentle pipetting. Cells were then pelleted by centrifugation and aspirated (400 RCF, 7 minutes).
(§5) Phosflow Perm Buffer III (BD Biosciences) was added (200 uL), and the cells were mixed gently by pipetting up and down once to prevent clumping. Cells were then washed twice with 200 uL FACS buffer followed by pelleting by centrifugation (400 RCF, 7 minutes). Cells were in resuspended in 200 uL FACS buffer and incubated with the antibodies in Table D and Table E per standard procedure then suspended in 200 uL FACS buffer for FACS analysis. Data was analyzed using FlowJo v10 software.

NK cells [4] = assay: pSTAT5 flow cytometry in hPBMCs: NK cells; format: cell-based, human
Method: as §4, §5

Treg cells [5] = assay: pSTAT5 flow cytometry in hPBMCs: Treg cells; format: cell-based, human; details: pSTAT5 MFI in hPBMCs, 20 minutes at 37° C.; read-out: EC50 Treg cell
Method: as §4, §5

CD8 T cells [6] = assay: In vivo expansion of CD8 T cells (spleen immunophenotyping); parameters: species or system mice; details: 0.5, 1, or 2 mg/kg daily for 4 days SC; spleens day 3
Method: (§6) Mice were randomized into groups to receive one of the molecules listed above or PBS control. The treatment groups were as follows: PBS; Fc-IL2; Fc-IL2v; […]; Immunophenotyping was conducted on day 3 after the first treatment (day 0) by collecting spleens from each group.

NK cells [7] = assay: In vivo expansion of NK cells (spleen immunophenotyping); parameters: species or system mice; details: 0.5, 1, or 2 mg/kg daily for 4 days SC; spleens day 3
Method: as §6

Treg cells [8] = assay: In vivo expansion of Treg cells (spleen immunophenotyping); parameters: species or system mice; details: 0.5, 1, or 2 mg/kg daily for 4 days SC; spleens day 3
Method: as §6

B16F10 cells = assay: Tolerability and tumor growth inhibition in B16F10-bearing mice (Example 21); format: in vivo, mouse (C57/BL6); details: for surviving mice: 1 mg/kg SC on days 5, 6, 7, 8, groups of 15, day 12 post first treatment; for tolerability in mice compared with Fc-IL2 and Fc-IL2v: 1 mg/kg SC on days 5-8; for tumor growth inhibition in comparison to PBS control: B16F10 SC, 1 mg/kg SC on days 5-8, surviving mice
From the text: On day 0 of the experiment, female C57/BL6 mice were subcutaneously implanted in the upper thigh with approximately 500,000 B16F10 cells, which had been freshly thawed from a single, low-passage vial (of 1*10^7 cells) and cultured for the minimum time required to establish sufficient cells for implantation.
On day 5 of the experiment, mice were randomized into groups to receive one of the molecules listed above or control. […] Tumor volumes, body weight, and animal survival were tracked throughout the course of the experiment. Animals were sacrificed once tumors reached approximately 2000 mm^3 or 2 weeks post treatment.

[9] = system: Treg cells (CD3+CD4+CD25+ Foxp3+); format: cell-based, mouse (C57BL/6); details: protein from supernatants of virus-infected HeLa cells, 15 minutes incubation
hIL2Rα (CD25) = molecular target: T1, hIL2Rα (CD25) (Homo sapiens, UniProt P01589); assay: Biacore 8K surface plasmon resonance, hIL2Rα (CD25); format: binding; details: SPR, Table B
T1 construct: Purified soluble ligands were covalently coupled onto a CM5 sensor chip
T1 sequence (P01589 22-240 limits assumed): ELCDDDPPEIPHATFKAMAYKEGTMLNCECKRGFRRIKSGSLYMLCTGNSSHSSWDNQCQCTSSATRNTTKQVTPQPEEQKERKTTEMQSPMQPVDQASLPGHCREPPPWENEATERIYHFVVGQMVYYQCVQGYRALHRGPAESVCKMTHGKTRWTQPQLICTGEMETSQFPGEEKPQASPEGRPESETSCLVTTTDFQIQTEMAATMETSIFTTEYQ
Method: (§7) All experiments were performed on a Biacore 8K Surface Plasmon Resonance based biosensor (GE Healthcare). Purified soluble ligands were covalently coupled onto a CM5 sensor chip using an Amine Coupling Kit (GE Healthcare, Product #BR100050) following the manufacturer's recommendations. HBS-EP+ running buffer (10 mM HEPES pH 7.4, 0.15 M NaCl, 3 mM EDTA, 0.005% P-20), ranging in concentration was injected on all flow cells for 7 minutes at 20 μL/min. CD25 and CD122 was captured to surface densities of ˜20 and ˜500 RU, respectively. A non-derivatized flow cell was used as a reference surface. All flow cells were blocked with 100 mM ethylenediamine in 200 mM borate buffer pH 8.5 for 7 minutes at 10 μL/min.
Protein interaction experiments were performed using HBS-EP+(pH 7.4) at 25° C. on each spot. Following capture of antigens, analyte (1.23, 3.7, 11.1, 33.3, 100, 300, and 900 nM concentrations of IL-2 variants) was injected at a flow rate of 50 μL/min in all flow cells for 50 seconds. After each analyte injection, dissociation was monitored for 5 minutes, followed by regeneration of all flow cells with a 20 second injection of 10 mM glycine (pH 2.1). Buffer cycles were collected for each sample for double-referencing purposes (double-referencing as described in Myszka, D. G., Improving biosensor analysis. J. Mol. Recognit. 12, 279-284 (1999)). […]

hILR2β (CD122) = molecular target: T2, hILR2β (CD122) (Homo sapiens, UniProt P14784); assay: Biacore 8K surface plasmon resonance, hILR2β (CD122); format: binding; details: SPR; for Kd / hILR2β (CD122) kinetics ka / hILR2β (CD122) kinetics kd: HBS-EP+ pH 7.4, 25° C.; for binding affinity to human IL-2Rβ compared with the wild-type IL-2 Fc fusion: Table B
T2 sequence (P14784 27-240 limits assumed): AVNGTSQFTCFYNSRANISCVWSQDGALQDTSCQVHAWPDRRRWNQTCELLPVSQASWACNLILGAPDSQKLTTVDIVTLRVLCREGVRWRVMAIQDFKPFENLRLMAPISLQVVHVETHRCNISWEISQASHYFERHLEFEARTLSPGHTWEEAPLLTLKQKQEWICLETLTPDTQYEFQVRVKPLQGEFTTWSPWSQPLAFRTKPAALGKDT
Method: as §7
Protein interaction experiments were performed using HBS-EP+(pH 7.4) at 25° C. on each spot. Following capture of antigens, analyte (1.23, 3.7, 11.1, 33.3, 100, 300, and 900 nM concentrations of IL-2 variants) was injected at a flow rate of 50 μL/min in all flow cells for 50 seconds. After each analyte injection, dissociation was monitored for 5 minutes, followed by regeneration of all flow cells with a 20 second injection of 10 mM glycine (pH 2.1). Buffer cycles were collected for each sample for double-referencing purposes (double-referencing as described in Myszka, D. G., Improving biosensor analysis. J. Mol. Recognit. 12, 279-284 (1999)). For kinetic analysis, the double-referenced sensorgrams were fit globally to a simple 1:1 Langmuir with mass transport binding model using Biacore 8K Evaluation Software version 1.1.1.7442. For steady-state affinity analysis, the double-referenced equilibrium binding responses were fit with a 1:1 Langmuir steady-state model using Biacore 8K Evaluation Software version 1.1.1.7442.

Molecule | Selectivity HH/iTreg [1] | EC50 [1] | EC50 [2] | expansion of CD8 T cells in vivo (CD8 T cells [6]) | expansion of NK cells in vivo (NK cells [7]) | proliferation of Treg cells in vivo (Treg cells [8]) | surviving mice (B16F10 cells) | tolerability in mice compared with Fc-IL2 and Fc-IL2v (B16F10 cells) | activity on Treg cells (concentration potency at inducing pSTAT5) compared to wild-type IL-2 [9] | binding to IL-2Rα (hIL2Rα (CD25)) | Kd (hILR2β (CD122)) | hILR2β (CD122) kinetics ka (hILR2β (CD122)) | hILR2β (CD122) kinetics kd (hILR2β (CD122)) | binding affinity to human IL-2Rβ compared with the wild-type IL-2 Fc fusion (hILR2β (CD122)) | relative selectivity for HH cells vs iTreg cells among the tested molecules [1] | tumor growth inhibition in comparison to PBS control (B16F10 cells) | other results
Fc-IL2-K43N:Y45T | 3.86 × 10^−3 | 0.166 µM | 0.00064 µM | promoted the expansion | promoted the expansion | modest increase in Treg proliferation | 7/15 | better tolerated | – | – | – | – | – | – | – | – | Selectivity CD8/Treg (CD8 T cells [3]; larger numbers = greater selectivity for CD8 T cells over Treg cells): 0.42; EC50 (CD8 T cells [3]; pSTAT5 MFI in hPBMCs, 20 minutes at 37° C., read-out: EC50 CD8 T cell): 0.0576 µM; Selectivity NK/Treg (NK cells [4]; larger numbers = greater selectivity for NK cells over Treg cells): 3.8; EC50 (NK cells [4]; pSTAT5 MFI in hPBMCs, 20 minutes at 37° C., read-out: EC50 NK cell): 0.00637 µM; EC50 (Treg cells [5]): 0.0242 µM
IL-2gv1 (protein) APTSSSTKKTQLQLEHLLLDLQMILNGINNYKNPKLTNMTTFNFTMPKKATELKHLQCLEEELKPLEEVLNLAQSKNFHLRPRDLISNINVIVLELKGSETTFMCEYADETATIVEFLNRWITFCQSIISTLT | – | – | – | – | – | – | – | – | reduced activity on Treg cells | – | – | – | – | – | – | – | –
IL-2gv2 (protein) APTSSSTKKTQLQLEHLLLDLQMILNGINNYKNPKLTRMLTFNFTMPKKATELKHLQCLEEELKPLEEVLNNATSKNFHLRPRDLISNINVIVLELKGSETTFMCEYADETATIVEFLNRWITFCQSIISTLT | – | – | – | – | – | – | – | – | reduced activity on Treg cells | – | – | – | – | – | – | – | –
Fc-IL2-R38N:L40T-K43N:Y45T (protein) APTSSSTKKTQLQLEHLLLDLQMILNGINNYKNPKLTNMTTFNFTMPKKATELKHLQCLEEELKPLEEVLNLAQSKNFHLRPRDLISNINVIVLELKGSETTFMCEYADETATIVEFLNRWITFCQSIISTLT | 6.47 × 10^−2 | 0.218 µM | 0.0141 µM | promoted the expansion | promoted the expansion | minimal effects on the proliferation of Treg cells | 11/15 | better tolerated | – | do not have measurable binding to IL-2Rα | 3.54 µM | 82600 M⁻¹ s⁻¹ | 0.292 s⁻¹ | retain similar binding affinity | greatest relative selectivity | significant tumor growth inhibition | –
Fc-IL2-K43N:Y45T-L72N:Q74T (protein) APTSSSTKKTQLQLEHLLLDLQMILNGINNYKNPKLTRMLTFNFTMPKKATELKHLQCLEEELKPLEEVLNNATSKNFHLRPRDLISNINVIVLELKGSETTFMCEYADETATIVEFLNRWITFCQSIISTLT | 6.89 × 10^−2 | 0.0652 µM | 0.00449 µM | promoted the expansion | promoted the expansion | minimal effects on the proliferation of Treg cells | 14/15 | better tolerated | – | do not have measurable binding to IL-2Rα | 2.62 µM | 89900 M⁻¹ s⁻¹ | 0.235 s⁻¹ | retain similar binding affinity | greatest relative selectivity | significant tumor growth inhibition | –
